Results published in patent publication US20100203046A1 (Biogen, published 2010).
Read-outs that look alike come from different tables or passages of the source. Blank lines part the entries; values can stand above or below the binder they belong to.

Key:
[1] = target: T1, human FcγRIII (CD16), CD16a (F158), on CD16-transfected Jurkat cells (human, UniProt P08637 17-254); assay: CD16 bridging assay, purified
T1 construct: whole, on cells

[2] = target: T2, human C1q (Sigma C0660) (human, UniProt P02745 23-245; P02746 28-253; P02747 29-245); assay: C1q ELISA on CD2, purified
T2 construct: Bought protein; also called complement protein C1q
T2 sequence (P02745 23-245 limits assumed, chain 1 of 3): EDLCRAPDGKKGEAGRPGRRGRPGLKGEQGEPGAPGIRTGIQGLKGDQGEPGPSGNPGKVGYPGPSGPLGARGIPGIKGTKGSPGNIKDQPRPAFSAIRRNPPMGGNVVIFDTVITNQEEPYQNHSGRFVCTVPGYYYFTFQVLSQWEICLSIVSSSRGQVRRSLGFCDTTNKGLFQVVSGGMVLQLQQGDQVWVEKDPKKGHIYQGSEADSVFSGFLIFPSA
T2 sequence (P02746 28-253 limits assumed, chain 2 of 3): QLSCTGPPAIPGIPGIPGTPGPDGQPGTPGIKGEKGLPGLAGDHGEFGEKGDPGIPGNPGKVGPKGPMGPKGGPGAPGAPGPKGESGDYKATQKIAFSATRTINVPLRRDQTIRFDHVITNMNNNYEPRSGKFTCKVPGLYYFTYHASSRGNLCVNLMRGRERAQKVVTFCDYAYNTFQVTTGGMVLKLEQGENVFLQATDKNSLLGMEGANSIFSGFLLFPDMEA
T2 sequence (P02747 29-245 limits assumed, chain 3 of 3): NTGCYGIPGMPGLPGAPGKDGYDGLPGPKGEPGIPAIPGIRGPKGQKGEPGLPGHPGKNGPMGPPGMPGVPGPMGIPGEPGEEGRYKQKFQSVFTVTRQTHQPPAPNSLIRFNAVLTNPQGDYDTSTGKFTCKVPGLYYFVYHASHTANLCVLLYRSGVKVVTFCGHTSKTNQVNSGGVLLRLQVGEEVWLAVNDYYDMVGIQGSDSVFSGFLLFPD

[3] = target: T3, human FcγRI (CD64) on IFNγ-activated U937 cells (human, UniProt P12314 16-374); assay: CD64 bridging assay, purified
T3 construct: whole, on cells; also called FcγR1
T3 sequence (P12314 16-374): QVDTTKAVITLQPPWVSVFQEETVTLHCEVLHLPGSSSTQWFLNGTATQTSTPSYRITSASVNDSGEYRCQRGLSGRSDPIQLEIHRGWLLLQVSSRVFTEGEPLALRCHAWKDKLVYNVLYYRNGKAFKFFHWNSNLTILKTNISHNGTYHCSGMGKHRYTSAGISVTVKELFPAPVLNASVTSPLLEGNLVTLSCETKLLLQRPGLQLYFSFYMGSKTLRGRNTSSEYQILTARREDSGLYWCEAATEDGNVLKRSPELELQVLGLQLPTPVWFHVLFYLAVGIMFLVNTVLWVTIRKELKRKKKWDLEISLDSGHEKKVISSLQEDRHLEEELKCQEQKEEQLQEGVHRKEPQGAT

[4] = target: Human FcγRIIIa on natural killer (NK) cells of a donor (human, UniProt P08637 17-254); assay: cell-based or functional assay
[5] = target: T1, human FcγRIII (CD16), CD16a (F158), on …; assay: CD16 bridging assay, transient
[6] = target: T4, GST-tagged FcγRIII, CD16a (V158) (UniProt P08637 17-208, limits assumed); assay: AlphaScreen competition vs huIgG1 beads, purified
T4 construct: the canonical entry carries F there; Captured by biotinylated anti-GST mAb on streptavidin donor beads; also called GST-FcγRIII; not shown: GST tag
Method: The relative binding affinities to FcγRIII (CD16), of the variant antibodies, was determined using an AlphaScreen assay (Amplified Luminescent Proximity Homogeneous Assay, PerkinElmer, MA, USA). Laser excitation of a donor bead excites oxygen, which if in close proximity to an acceptor bead generates a cascade of chemiluminescent events, ultimately leading to fluorescence emission at 520-620 nm. […] The reaction was carried out for one hour in a 25 μl volume and plates were read in the Fusion Alpha reader (PerkinElmer).

[7] = target: T1, human FcγRIII (CD16), CD16a (F158), on …; assay: summary of Table 3 assays
[8] = target: T2, human C1q (Sigma C0660); assay: C1q ELISA on CD2, transient
Method: The C1q binding assay was performed by coating 96 well Maxisorb ELISA plates (Nalge-Nunc Rochester, N.Y., USA) with 50 μl recombinant soluble human CD2 at 10 μg/ml overnight at 4° C. in PBS. The wells were aspirated and washed three times with wash buffer (PBS, 0.05% Tween 20) and blocked for >1 h with 200 μ/well of block/diluent buffer (0.1 M Na₂HPO₄, pH 7, 0.1 M NaCl, 0.05% Tween 20, 0.1% gelatin). The antibody to be tested was diluted in block/diluent buffer starting at 15 μg/ml with 3-fold dilutions. 50 μl were added per well, and the plates incubated for 2 h at room temperature. After aspirating and washing as above, 50 μl/well of 2 μg/ml of Sigma human C1q (C0660) diluted in block/diluent buffer was added and incubated for 1.5 h at room temperature. After aspirating and washing as above, 50 μl/well of chicken anti human C1q (Cedarlane laboratories CL2101AP), diluted 2,000-fold in block/diluent buffer, was added. After incubation for 1.5 h at room temperature, the wells were aspirated and washed as above. 50 μl/well of donkey F(ab′)₂ anti chicken IgY HRP conjugate (Jackson ImmunoResearch 703-036-155) diluted to 1:5,000 in block/diluent was then added, and the wells incubated for 1 h at room temperature. After aspirating and washing as above, 100 μl TMB substrate (420 μM TMB, 0.004% H₂O₂ in 0.1 M sodium acetate/citric acid buffer, pH 4.9) was added and incubated for 2 min before the reaction was stopped with 100 μl 2 N sulfuric acid. The absorbance was read at 450 nm with a Softmax P instrument, and Softmax software was used to determine the relative binding affinity (C value) with a 4-parameter fit.

[9] = target: T1, human FcγRIII (CD16), CD16a (F158), on …; assay: CD16 bridging assay, transient; remark: listed apart in the source
[10] = target: T2, human C1q (Sigma C0660); assay: summary of Table 6 assays
[11] = target: T1, human FcγRIII (CD16), CD16a (F158), on …; assay: CD16 bridging assay, transient; remark: listed apart in the source
[12] = target: T1, human FcγRIII (CD16), CD16a (F158), on …; assay: summary of Table 5 assays

T1 sequence (P08637 17-254): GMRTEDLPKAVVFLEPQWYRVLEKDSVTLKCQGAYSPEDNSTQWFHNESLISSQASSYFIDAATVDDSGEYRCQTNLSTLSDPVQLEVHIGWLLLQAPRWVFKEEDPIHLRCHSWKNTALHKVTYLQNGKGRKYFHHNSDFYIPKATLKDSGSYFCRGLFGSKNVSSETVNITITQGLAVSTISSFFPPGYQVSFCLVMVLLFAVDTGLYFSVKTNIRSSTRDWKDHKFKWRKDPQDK

B4: chCB6-huIgG1 A378Y (antibody, name in EU numbering)
heavy: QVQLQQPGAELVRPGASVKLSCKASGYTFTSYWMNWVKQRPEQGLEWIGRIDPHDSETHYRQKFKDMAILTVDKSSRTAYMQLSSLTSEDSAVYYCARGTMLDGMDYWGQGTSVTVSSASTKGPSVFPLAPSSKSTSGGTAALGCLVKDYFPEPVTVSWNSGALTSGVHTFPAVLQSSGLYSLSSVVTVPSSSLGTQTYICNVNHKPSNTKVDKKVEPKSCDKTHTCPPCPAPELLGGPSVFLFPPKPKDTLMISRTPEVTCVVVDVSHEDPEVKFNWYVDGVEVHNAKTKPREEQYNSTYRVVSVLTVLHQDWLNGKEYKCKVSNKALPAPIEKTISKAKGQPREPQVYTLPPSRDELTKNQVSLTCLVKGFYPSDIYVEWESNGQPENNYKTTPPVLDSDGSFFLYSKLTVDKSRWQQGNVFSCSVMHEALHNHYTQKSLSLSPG
light: QIVLTQSPAIMSASPGEKVTMTCRASSSVSHMHWYQQKSGTSPKRWIYDTSKLASGVPARFSGSGSGTSYSLTISSVEAEDAATYYCQQWSSNPLTFGAGTKLELKRTVAAPSVFIFPPSDEQLKSGTASVVCLLNNFYPREAKVQWKVDNALQSGNSQESVTEQDSKDSTYSLSSTLTLSKADYEKHKVYACEVTHQGLSSPVTKSFNRGEC
notes: copies: 2 + 2
fold increase in binding vs WT [8]: 6 fold
binding result [9]: binds
fold increase in binding vs WT [10]: > 5 fold

B6: chCB6-huIgG1 A378F (antibody, name in EU numbering)
heavy: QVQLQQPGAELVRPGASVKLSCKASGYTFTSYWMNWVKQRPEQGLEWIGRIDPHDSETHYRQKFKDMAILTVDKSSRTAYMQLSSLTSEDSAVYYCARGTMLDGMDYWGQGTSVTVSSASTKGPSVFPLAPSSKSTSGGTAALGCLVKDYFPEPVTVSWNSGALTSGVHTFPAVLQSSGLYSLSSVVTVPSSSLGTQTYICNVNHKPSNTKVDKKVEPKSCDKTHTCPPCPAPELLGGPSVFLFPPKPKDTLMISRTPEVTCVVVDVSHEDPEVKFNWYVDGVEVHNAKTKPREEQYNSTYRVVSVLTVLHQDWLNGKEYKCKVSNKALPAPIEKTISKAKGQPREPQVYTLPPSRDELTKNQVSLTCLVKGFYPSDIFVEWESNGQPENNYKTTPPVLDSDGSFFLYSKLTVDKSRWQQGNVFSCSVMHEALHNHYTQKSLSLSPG
light: QIVLTQSPAIMSASPGEKVTMTCRASSSVSHMHWYQQKSGTSPKRWIYDTSKLASGVPARFSGSGSGTSYSLTISSVEAEDAATYYCQQWSSNPLTFGAGTKLELKRTVAAPSVFIFPPSDEQLKSGTASVVCLLNNFYPREAKVQWKVDNALQSGNSQESVTEQDSKDSTYSLSSTLTLSKADYEKHKVYACEVTHQGLSSPVTKSFNRGEC
notes: copies: 2 + 2
fold increase in binding vs WT [8]: 6 fold
binding result [9]: binds
fold increase in binding vs WT [10]: > 5 fold

B7: chCB6-huIgG1 R301Q (antibody, name in EU numbering)
heavy: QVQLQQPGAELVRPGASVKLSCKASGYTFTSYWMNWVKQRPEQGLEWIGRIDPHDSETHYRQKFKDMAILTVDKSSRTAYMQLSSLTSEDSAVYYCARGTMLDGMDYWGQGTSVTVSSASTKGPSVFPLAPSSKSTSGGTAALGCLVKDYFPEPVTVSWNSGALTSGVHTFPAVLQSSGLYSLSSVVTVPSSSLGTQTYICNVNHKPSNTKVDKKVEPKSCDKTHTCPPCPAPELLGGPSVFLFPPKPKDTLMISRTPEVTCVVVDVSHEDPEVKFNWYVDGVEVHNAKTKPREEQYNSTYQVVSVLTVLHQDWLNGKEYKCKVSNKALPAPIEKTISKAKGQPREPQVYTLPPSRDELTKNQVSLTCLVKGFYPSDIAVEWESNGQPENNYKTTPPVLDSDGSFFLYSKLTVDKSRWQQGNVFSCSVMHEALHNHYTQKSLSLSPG
light: QIVLTQSPAIMSASPGEKVTMTCRASSSVSHMHWYQQKSGTSPKRWIYDTSKLASGVPARFSGSGSGTSYSLTISSVEAEDAATYYCQQWSSNPLTFGAGTKLELKRTVAAPSVFIFPPSDEQLKSGTASVVCLLNNFYPREAKVQWKVDNALQSGNSQESVTEQDSKDSTYSLSSTLTLSKADYEKHKVYACEVTHQGLSSPVTKSFNRGEC
notes: copies: 2 + 2
binding result [8]: binds
fold decrease in binding vs WT [11]: 13 fold
fold decrease in binding vs WT [12]: > 10 fold

B10: chCB6-huIgG1 A378W (antibody, name in EU numbering)
heavy: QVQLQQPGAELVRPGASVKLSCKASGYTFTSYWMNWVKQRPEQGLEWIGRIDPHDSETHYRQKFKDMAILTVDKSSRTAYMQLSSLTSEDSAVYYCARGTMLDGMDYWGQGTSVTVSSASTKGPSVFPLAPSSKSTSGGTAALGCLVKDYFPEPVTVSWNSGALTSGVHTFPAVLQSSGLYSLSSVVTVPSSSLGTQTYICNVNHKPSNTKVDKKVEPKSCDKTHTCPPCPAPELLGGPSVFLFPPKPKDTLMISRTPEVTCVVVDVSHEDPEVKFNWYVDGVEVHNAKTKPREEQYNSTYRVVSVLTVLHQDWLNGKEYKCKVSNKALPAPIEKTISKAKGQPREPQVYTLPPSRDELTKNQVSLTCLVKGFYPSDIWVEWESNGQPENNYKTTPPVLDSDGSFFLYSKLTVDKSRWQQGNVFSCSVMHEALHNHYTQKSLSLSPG
light: QIVLTQSPAIMSASPGEKVTMTCRASSSVSHMHWYQQKSGTSPKRWIYDTSKLASGVPARFSGSGSGTSYSLTISSVEAEDAATYYCQQWSSNPLTFGAGTKLELKRTVAAPSVFIFPPSDEQLKSGTASVVCLLNNFYPREAKVQWKVDNALQSGNSQESVTEQDSKDSTYSLSSTLTLSKADYEKHKVYACEVTHQGLSSPVTKSFNRGEC
notes: copies: 2 + 2
fold increase in binding vs WT [8]: 7 fold
binding result [9]: binds
fold increase in binding vs WT [10]: > 5 fold

B11: chCB6-huIgG1 E294S (antibody, name in EU numbering)
heavy: not shown
light: QIVLTQSPAIMSASPGEKVTMTCRASSSVSHMHWYQQKSGTSPKRWIYDTSKLASGVPARFSGSGSGTSYSLTISSVEAEDAATYYCQQWSSNPLTFGAGTKLELKRTVAAPSVFIFPPSDEQLKSGTASVVCLLNNFYPREAKVQWKVDNALQSGNSQESVTEQDSKDSTYSLSSTLTLSKADYEKHKVYACEVTHQGLSSPVTKSFNRGEC
notes: copies: 2 + 2
fold decrease in binding vs WT [11]: 12 fold
fold decrease in binding vs WT [12]: > 10 fold

Further lines, with some results ahead:

fold increase in binding vs WT [1]: 7 fold
binding result [2]: binds
binding result [3]: binds
fold increase in binding vs WT [5]: 20 fold
fold increase in binding vs WT [6]: 8 fold
B1: chCB6-huIgG1 I332E (antibody, name in EU numbering)
heavy: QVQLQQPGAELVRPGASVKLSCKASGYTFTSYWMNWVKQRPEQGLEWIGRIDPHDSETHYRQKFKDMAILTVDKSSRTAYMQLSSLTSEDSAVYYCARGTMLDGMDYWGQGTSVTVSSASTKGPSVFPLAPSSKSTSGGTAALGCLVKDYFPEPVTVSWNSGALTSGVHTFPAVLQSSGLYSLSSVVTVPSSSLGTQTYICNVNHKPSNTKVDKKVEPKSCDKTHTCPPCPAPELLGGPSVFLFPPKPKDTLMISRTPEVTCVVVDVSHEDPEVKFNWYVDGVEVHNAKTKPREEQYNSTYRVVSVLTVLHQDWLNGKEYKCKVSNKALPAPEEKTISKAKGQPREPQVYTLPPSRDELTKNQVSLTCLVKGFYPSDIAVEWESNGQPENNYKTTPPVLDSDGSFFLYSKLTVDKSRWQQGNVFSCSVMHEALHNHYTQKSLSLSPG
light: QIVLTQSPAIMSASPGEKVTMTCRASSSVSHMHWYQQKSGTSPKRWIYDTSKLASGVPARFSGSGSGTSYSLTISSVEAEDAATYYCQQWSSNPLTFGAGTKLELKRTVAAPSVFIFPPSDEQLKSGTASVVCLLNNFYPREAKVQWKVDNALQSGNSQESVTEQDSKDSTYSLSSTLTLSKADYEKHKVYACEVTHQGLSSPVTKSFNRGEC
notes: copies: 2 + 2
ADCC NK cell, purified (fold increase vs WT) [4]: 24 fold

fold decrease in binding vs WT [7]: > 10 fold
fold decrease in binding vs WT [5]: 13 fold
B2: chCB6-huIgG1 S298N (antibody, name in EU numbering)
heavy: not shown
light: QIVLTQSPAIMSASPGEKVTMTCRASSSVSHMHWYQQKSGTSPKRWIYDTSKLASGVPARFSGSGSGTSYSLTISSVEAEDAATYYCQQWSSNPLTFGAGTKLELKRTVAAPSVFIFPPSDEQLKSGTASVVCLLNNFYPREAKVQWKVDNALQSGNSQESVTEQDSKDSTYSLSSTLTLSKADYEKHKVYACEVTHQGLSSPVTKSFNRGEC
notes: copies: 2 + 2

fold decrease in binding vs WT [1]: 9 fold
fold decrease in binding vs WT [7]: > 10 fold
binding result [2]: no binding
fold decrease in binding vs WT [3]: 14 fold
fold decrease in binding vs WT [5]: 30 fold
B3: chCB6-huIgG1 L328E (antibody, name in EU numbering)
heavy: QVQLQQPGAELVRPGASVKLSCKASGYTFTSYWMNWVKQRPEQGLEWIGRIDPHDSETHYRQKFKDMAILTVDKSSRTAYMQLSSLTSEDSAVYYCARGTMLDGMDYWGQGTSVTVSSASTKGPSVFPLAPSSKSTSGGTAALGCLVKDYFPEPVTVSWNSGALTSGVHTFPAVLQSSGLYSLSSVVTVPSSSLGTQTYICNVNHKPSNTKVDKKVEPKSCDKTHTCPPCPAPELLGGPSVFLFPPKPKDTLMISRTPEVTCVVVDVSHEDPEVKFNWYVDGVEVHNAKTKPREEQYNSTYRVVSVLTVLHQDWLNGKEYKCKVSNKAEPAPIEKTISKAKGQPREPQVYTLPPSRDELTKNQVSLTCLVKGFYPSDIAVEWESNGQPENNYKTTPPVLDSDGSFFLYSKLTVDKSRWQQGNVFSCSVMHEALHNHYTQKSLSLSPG
light: QIVLTQSPAIMSASPGEKVTMTCRASSSVSHMHWYQQKSGTSPKRWIYDTSKLASGVPARFSGSGSGTSYSLTISSVEAEDAATYYCQQWSSNPLTFGAGTKLELKRTVAAPSVFIFPPSDEQLKSGTASVVCLLNNFYPREAKVQWKVDNALQSGNSQESVTEQDSKDSTYSLSSTLTLSKADYEKHKVYACEVTHQGLSSPVTKSFNRGEC
notes: copies: 2 + 2

fold decrease in binding vs WT [7]: > 10 fold
binding result [2]: no binding
binding result [3]: binds
binding result [5]: no binding
B5: chCB6-huIgG1 L328D (antibody, name in EU numbering)
heavy: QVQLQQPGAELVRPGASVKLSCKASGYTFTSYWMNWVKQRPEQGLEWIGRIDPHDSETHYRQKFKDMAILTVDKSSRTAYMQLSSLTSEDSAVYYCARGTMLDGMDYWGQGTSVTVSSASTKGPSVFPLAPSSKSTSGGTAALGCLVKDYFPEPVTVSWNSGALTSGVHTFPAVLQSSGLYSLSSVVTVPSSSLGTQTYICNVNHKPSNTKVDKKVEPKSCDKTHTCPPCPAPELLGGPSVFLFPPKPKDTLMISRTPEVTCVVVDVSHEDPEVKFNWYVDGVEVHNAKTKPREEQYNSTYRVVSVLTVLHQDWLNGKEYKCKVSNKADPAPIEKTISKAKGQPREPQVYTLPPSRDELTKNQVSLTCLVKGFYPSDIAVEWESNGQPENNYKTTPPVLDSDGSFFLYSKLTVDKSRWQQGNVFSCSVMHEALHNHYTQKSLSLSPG
light: QIVLTQSPAIMSASPGEKVTMTCRASSSVSHMHWYQQKSGTSPKRWIYDTSKLASGVPARFSGSGSGTSYSLTISSVEAEDAATYYCQQWSSNPLTFGAGTKLELKRTVAAPSVFIFPPSDEQLKSGTASVVCLLNNFYPREAKVQWKVDNALQSGNSQESVTEQDSKDSTYSLSSTLTLSKADYEKHKVYACEVTHQGLSSPVTKSFNRGEC
notes: copies: 2 + 2

fold decrease in binding vs WT [7]: > 10 fold
fold decrease in binding vs WT [5]: 30 fold
B8: chCB6-huIgG1 F241Q (antibody, name in EU numbering)
heavy: not shown
light: QIVLTQSPAIMSASPGEKVTMTCRASSSVSHMHWYQQKSGTSPKRWIYDTSKLASGVPARFSGSGSGTSYSLTISSVEAEDAATYYCQQWSSNPLTFGAGTKLELKRTVAAPSVFIFPPSDEQLKSGTASVVCLLNNFYPREAKVQWKVDNALQSGNSQESVTEQDSKDSTYSLSSTLTLSKADYEKHKVYACEVTHQGLSSPVTKSFNRGEC
notes: copies: 2 + 2

fold decrease in binding vs WT [8]: 3 fold
fold decrease in binding vs WT [11]: 18 fold
fold decrease in binding vs WT [12]: > 10 fold
B9: chCB6-huIgG1 Y296H (antibody, name in EU numbering)
heavy: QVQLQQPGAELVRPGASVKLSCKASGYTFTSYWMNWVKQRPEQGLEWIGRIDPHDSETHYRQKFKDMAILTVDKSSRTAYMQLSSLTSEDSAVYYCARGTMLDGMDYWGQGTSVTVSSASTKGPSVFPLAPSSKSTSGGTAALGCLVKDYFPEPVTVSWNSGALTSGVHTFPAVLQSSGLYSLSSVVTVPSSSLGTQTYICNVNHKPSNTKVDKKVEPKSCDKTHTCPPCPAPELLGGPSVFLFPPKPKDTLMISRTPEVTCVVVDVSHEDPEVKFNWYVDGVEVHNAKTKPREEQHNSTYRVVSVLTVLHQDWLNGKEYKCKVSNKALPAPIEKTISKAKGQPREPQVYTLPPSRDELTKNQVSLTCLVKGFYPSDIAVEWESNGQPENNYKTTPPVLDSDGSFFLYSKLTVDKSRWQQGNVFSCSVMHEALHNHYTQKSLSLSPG
light: QIVLTQSPAIMSASPGEKVTMTCRASSSVSHMHWYQQKSGTSPKRWIYDTSKLASGVPARFSGSGSGTSYSLTISSVEAEDAATYYCQQWSSNPLTFGAGTKLELKRTVAAPSVFIFPPSDEQLKSGTASVVCLLNNFYPREAKVQWKVDNALQSGNSQESVTEQDSKDSTYSLSSTLTLSKADYEKHKVYACEVTHQGLSSPVTKSFNRGEC
notes: copies: 2 + 2
